Six molecules from patent US20250263467A1 (VIR BIOTECHNOLOGY, published 2025) can be followed below.

The target in assay [1] is SARS-CoV-2 S protein (strain BetaCoV/Wuhan-Hu-1/2019) expressed on transfected cells (SARS-CoV-2 (Wuhan-Hu-1), UniProt P0DTC2 14-1273). Briefly: flow cytometry, B cell supernatant on S-transfected ExpiCHO cells.
Assay [2] deals with SARS-CoV-2 RBD with a Strep Tag II (SARS-CoV-2, UniProt P0DTC2 331-550). Briefly: BLI (Octet), RBD-Strep Tag II captured, antibody from B cell supernatant.
Assay [3] addresses SARS-CoV-2 RBD (residues 331-550 of spike from BetaCoV/Wuhan-Hu-1/2019, produced in house in Expi-CHO cells) (SARS-CoV-2 (Wuhan-Hu-1), UniProt P0DTC2 331-550). Briefly: BLI (Octet), antibody on protein A sensors, RBD in solution.
Assay [4] deals with SARS-CoV-1 RBD (Sino Biological) (SARS-CoV-1, UniProt P59594 306-527). Described as above.
Assay [5] deals with His-tagged RBD of SARS-CoV-2 (SARS-CoV-2 (Wuhan-Hu-1), UniProt P0DTC2 331-550). In words: BLI (Octet), His-tagged RBD on anti-HIS sensors, antibody in solution.
Assay [6] has as its target SARS-CoV-2 Spike protein on pseudotyped virus (SARS-CoV-2 (Wuhan-Hu-1), UniProt P0DTC2 14-1273). Briefly: cell-based or functional assay.

B1: SARS-CoV-2 S303-v1 (antibody, V domains shown)
VH: EVQLVESGGGLVKPGGSLRLSCAASGFTFLTYSMNWVRQTPGKRLQWVSAISGSGGATYYADSVKGRFTISRDNSKNTLYLQMNTVTADDTAIYFCARERDDIFPMGLNAFDIWGQGAMVIVSS
VL: DIQMTQSPSTLSASVGDRVTITCRASQSISNWLAWYQQKPGKAPKLLIYKASSLESGVPSRFSGSGSGTEFTLTISSLQPDDSATYYCQQYDTYSWTFGQGTKVEIK
In the case of B1, the binding result in assay [1] and in assay [2] was “binds” in each case.

B2: S303 rIgG1 (antibody, V domains shown)
VH: B1 VH
VL: B1 VL
As for B2, the binding result in assay [3], in assay [4] and in assay [5] was “binds” throughout.

B3: S315 rIgG1-LS (antibody, V domains shown)
VH: EVQLVESGGGLVQPGGSLRLSCAASGFTFSNYWMTWVRQAPGKGLEWVANIKQDGSEKYYVDSVKGRFTISRDNAKNSLYLQMNSLRAEDTAVYYCARDLWWNDQAHYYGMDVWGQGTTVTVSS
VL: SYELTQPPSVSVSPGQTARITCSGDAFPNQYAYWYQQKPGQAPVMLIYKDSERPSGIPERFFGSSSGTTVTLTIRGVQAEDEADYYCQSADSSGTVFGGGTKLTVL
B3: the “IC50, neutralization of SARS-CoV-2pp on DBT-ACE2 cells (further assay)” value in assay [6] stood at 25.1 µg/mL.

B4: SARS-CoV-2 S302 (antibody, V domains shown)
VH: QVQLVESGGGVVQPGRSLRLSCAASGFTFSSYGMHWVRQAPGKGLEWVAVISYDGSNKYYADSVKGRFTISRDNSKNTLYLQMNSLRAEDTAVYYCAKDISSGWDRVFDYWGQGTLVTVSS
VL: EILLTQSPGTLSLSPGERATLSCRTSQSVGSSYLAWYQQKPGQAPRLLIYAASSRAIGIPDRFSGSGSGTDFTLTISRLEPEDFAVYYCQQYGSSPWTFGQGTKVEIK
Regarding B4, in assay [1], the binding result is “binds”.

B5: S304 rIgG1 (antibody, V domains shown)
VH: EVQLVESGGGLVQPGGSLRLSCAASGFTFSSYDMHWVRQTTGKGLEWVSTIGTAGDTYYPDSVKGRFTISREDAKNSLYLQMNSLRAGDTAVYYCARGDSSGYYYYFDYWGQGTLLTVSS
VL: DIQMTQSPSSLSAAVGDRVTITCRASQSIGSYLNWYQQKPGKAPKLLIYAASSLQSGVPSRFSGSGSGTDFTLTISSLQPEDFAIYYCQQSYVSPTYTFGPGTKVDIK
Take B5: the “IC50, neutralization of SARS-CoV-2pp on DBT-ACE2 cells” value in assay [6] was approximately 17 µg/mL. The binding result in assay [4] was “binds”.

B6: SARS-CoV-2 S308-v1 (antibody, V domains shown)
VH: QVQLVESGGGVVQPGRSLRLSCAASRFTFSSYGMHWVRQAPGKGLEWVAVIWHDGNNKHYGDSVKGRVTISRDNSKNTLYLQMTSLRAEDTAVYYCARAVTTFKGSGRARMRGMDVWGQGTTVTVSS
VL: DIQLTQSPSFLSASVGDRVTITCRASQGINTYLAWYQQKPGKAPKLLIYAASTLQSGVPSRFSGSGSGTEFTLTISSLQPEDFATYYCQHLDTYPFTFGPGTKVDIK
On to B6, for which the binding result in assay [1] is “binds”.
